Test results from article PMC6656915, “The MmpL3 interactome reveals a complex crosstalk between cell envelope biosynthesis and cell elongation and division in mycobacteria” (Scientific Reports, 2019).

Key:
[1] = biological target: MmpL3 protein from M. tuberculosis, C-terminally hexahistidine-tagged, devoid of gfp fusion (M. tuberculosis) (UniProt P9WJV5); assay: SPR; MmpL3 immobilised on CM5 chip; analytes injected at two-fold increasing concentrations from 0.6 µM up to 10 µM, 10 µL/min for 30 sec, dissociation 180 sec, 25 °C; 20 mM HEPES pH 7.4, 150 mM NaCl, 0.2% Triton X-100 (0.03% DDM instead for AftD); global fit to the 1:1 Langmuir binding model
[2] = biological target: T1, MmpL3 from M. tuberculosis, C-terminally hexahistidine-tagged, purified (M. tuberculosis, UniProt P9WJV5 1-944); assay: SPR
T1 chain: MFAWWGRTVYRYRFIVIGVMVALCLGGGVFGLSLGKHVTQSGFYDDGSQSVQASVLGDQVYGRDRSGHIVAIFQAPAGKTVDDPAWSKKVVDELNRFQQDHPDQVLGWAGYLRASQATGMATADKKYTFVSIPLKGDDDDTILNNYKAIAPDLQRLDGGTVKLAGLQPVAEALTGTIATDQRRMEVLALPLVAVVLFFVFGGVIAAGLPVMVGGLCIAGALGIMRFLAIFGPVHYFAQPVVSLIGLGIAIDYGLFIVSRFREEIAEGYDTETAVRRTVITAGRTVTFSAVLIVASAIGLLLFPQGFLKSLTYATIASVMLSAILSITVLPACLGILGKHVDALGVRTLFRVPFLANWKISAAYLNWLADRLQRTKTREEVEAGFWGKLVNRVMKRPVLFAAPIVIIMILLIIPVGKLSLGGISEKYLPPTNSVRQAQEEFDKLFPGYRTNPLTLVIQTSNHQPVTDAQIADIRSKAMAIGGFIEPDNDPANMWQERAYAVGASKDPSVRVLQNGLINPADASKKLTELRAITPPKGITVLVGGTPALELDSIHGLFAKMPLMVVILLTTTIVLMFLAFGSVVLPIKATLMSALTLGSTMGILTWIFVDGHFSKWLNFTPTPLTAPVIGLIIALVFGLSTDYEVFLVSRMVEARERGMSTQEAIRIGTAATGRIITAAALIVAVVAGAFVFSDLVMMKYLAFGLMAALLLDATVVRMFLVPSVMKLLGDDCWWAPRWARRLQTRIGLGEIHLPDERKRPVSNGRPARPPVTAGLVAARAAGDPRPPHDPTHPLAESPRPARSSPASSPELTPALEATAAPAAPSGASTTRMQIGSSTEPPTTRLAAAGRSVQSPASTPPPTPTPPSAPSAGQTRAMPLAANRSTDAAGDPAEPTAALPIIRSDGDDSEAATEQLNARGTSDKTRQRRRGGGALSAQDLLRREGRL

[3] = biological target: T2, MmpL3 protein from M. tuberculosis, C-terminally hexahistidine-tagged, devoid of gfp fusion (M. tuberculosis, UniProt P9WJV5 1-944); assay: SPR; MmpL3 immobilised on CM5 chip; analytes injected at two-fold increasing concentrations from 0.6 µM up to 10 µM, 10 µL/min for 30 sec, dissociation 180 sec, 25 °C; 20 mM HEPES pH 7.4, 150 mM NaCl, 0.2% Triton X-100 (0.03% DDM instead for AftD); global fit to the 1:1 Langmuir binding model; settings: both partners purified
T2 construct: MmpL3 (Rv0206c), mycolic acid (TMM) transporter of M. tuberculosis; also called MmpL3tb; Rv0206c
T2 sequence: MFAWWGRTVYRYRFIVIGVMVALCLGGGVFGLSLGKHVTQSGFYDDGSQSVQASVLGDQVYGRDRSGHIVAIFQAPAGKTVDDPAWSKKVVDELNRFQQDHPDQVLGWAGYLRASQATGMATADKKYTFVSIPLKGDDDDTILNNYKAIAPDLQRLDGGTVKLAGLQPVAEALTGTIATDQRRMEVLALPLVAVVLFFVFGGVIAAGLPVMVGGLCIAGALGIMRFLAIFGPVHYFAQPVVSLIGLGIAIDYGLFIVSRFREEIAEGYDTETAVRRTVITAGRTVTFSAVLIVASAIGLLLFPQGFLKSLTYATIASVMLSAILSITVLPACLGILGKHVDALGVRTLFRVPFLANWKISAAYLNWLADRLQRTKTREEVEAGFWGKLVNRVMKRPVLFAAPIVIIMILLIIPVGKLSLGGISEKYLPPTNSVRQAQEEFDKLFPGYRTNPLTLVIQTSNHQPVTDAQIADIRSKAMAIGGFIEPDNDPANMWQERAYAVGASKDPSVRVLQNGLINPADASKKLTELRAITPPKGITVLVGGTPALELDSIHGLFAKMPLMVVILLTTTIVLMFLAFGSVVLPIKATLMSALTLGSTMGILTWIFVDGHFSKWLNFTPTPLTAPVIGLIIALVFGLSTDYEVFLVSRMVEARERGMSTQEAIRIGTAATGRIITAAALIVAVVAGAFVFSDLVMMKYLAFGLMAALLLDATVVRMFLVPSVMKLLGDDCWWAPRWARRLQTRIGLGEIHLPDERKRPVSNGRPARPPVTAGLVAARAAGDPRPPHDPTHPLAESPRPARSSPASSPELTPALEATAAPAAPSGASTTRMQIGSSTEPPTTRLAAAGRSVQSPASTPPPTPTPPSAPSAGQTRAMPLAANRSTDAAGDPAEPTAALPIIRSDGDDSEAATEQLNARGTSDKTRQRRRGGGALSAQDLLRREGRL

Molecule | Kd [1] [nM] | koff [1] [s⁻¹] | kon [1] [M⁻¹ s⁻¹] | Kd [2] [nM] | Kd [3] [nM] | koff [3] [s⁻¹] | kon [3] [M⁻¹ s⁻¹]
AftD from Mycobacterium abscessus (enzyme) | 170 | 0.00335 | 19400 | – | – | – | –
AftD from Mycobacterium abscessus, N-terminal 10-histidine tag, purified (natural protein) MTYRLDSSALSRRWLAVAAAVSLLLTFSQSPGQISPDTKLDLAINPLRFAARALNLWSSDLPFGQAQNQAYGYLFPHGAFFSLGHLLGVPAWVTQRLWWALLIVAGFWGLIRVAEALGIGTRGSRIIAAVAFALSPRVLTTLGAISSETLPMMLAPWVLLPLILTFQGRMSPRRAAALSAVAVALMGAVNAVATALACGVAVIWWLAHRPNRTWWRFTAWWIPCLALASTWWIVALLIFGKISPKFLDFIESSGVTTQWTSLTEVLRGTDSWTPFVAPTATAGSSLVTQSAMVIATTMLAAAGMAGLAMRGMPARGRLVAVLLIGLVLLTAGYTGALGSPIAQQIQFFLDDGGTPLRNVHKLEPLIRLPLILGLAHALSRIPLPASVPVRQWLSALARPERNRAVAFAIVLLVALAASTSLAWTGRLVPRGGFDAIPGYWNDTAHWLADHDTGGRALVVPGAPFAIQTWGLTRDEPLQALGQTPWGVRDSIPLTPPETIRAIDSVQQLFAAGRPSDGLADTLREQGISYLVVRNDLDPDTSRSARPILVHHTIEGSPGLTKVAQFGDPVGAGAVEGFVADSDLRPQYPAVEIYAVGANDHDGEPYFTDIDTMPRVAGGPEALLRLNERRRQLNEPPLGPSLLATDAAQAGLRPGPAVVTDTPLARETDYGRVDDHSSAIRAPGDKRRTFNRVPDYPATGVPLVNGSWTGGTITASSSASDSTALPNVAPGTSTAAAIDRDNATSWVSSSLEAALGQWIRIDLDRPITNAILTVTPSATALGAQVRRLEVETDNGTTSVRFDEPGQPLNIALRPGETTWVKVTATGTDDGTSGVQFGVTELSLTQYDAAGFAHTVDLRHSATVPPPPAGDNPLGWDLGSPLQGRSGCAPSPQRLRCAATLSLAPEEPGTFIRTLTVPQPVSLTPRLWVRARPGPQLRDLIQQPGTTVATGDSDVIDPQGSSYAATDGDPGTVWTAPQDSVQRLHLPSLVIKLPKPTAIGAIRLRPSRTEVPAHPKQVAINLGDGPQLRSIDPKADVTELALHPSITDTITVTVTDWTDIIDRTALGFDQLKPPGIAEVIALDADHRPIAPADNAANSKRKITIGCNRGPILALAGRFVPMSITATVRELLDGTVIQATPCDTSPIATGAGIQDVTVNPSQQFIVDGVQLTAAATEPASATMTVAPKGAWGPDRREVTAEPSAHERVLAVPESINPGWAARDAQGHLLTPVRVNGWQQGWVLPAGDGGKITLTFGLNTWYRAGLFGGLALLPILACLALLPARGRTTLPPVAPWCAGPAAGVAVLAALTAISGISGMAVGLAALAFKVWTRWPLRAVTAAGVYLAGGSLLLAGAALSRHPWRSVGGYTGHSWWIQLLALISVASVALAAVRLPSRRCWKRRSASREGDSTSA | – | – | – | 172 | – | – | –
Rv0207c from M. tuberculosis H37Rv with C-terminal hexahistidine tag (natural protein, Rv0207c, conserved protein of unknown function of M. tuberculosis H37Rv) MSLTEDVTSQTSESLARHSVLAEDLSQDGLTSLGAPGARVLLVWDAPNLDMGLGSILGRRPTALERPRFDALGRWLLARTAEIVAGRPGISTEPEATVFTNIAPGSAEVVRPWVDALRNVGFAVFAKPKVDEDSDVDRDMLAHIDERYREGLAALVVASADGQAFRQPLEAVARSGTPVQVLGFREHASWALASDTLEFVDLEDIAGVFREPLPRIGLDSLPEQGAWLQPFRPLSSLLTSRV | – | – | – | 152 | 150 | 0.00227 | 14900
CrgA from M. tuberculosis H37Rv with C-terminal hexahistidine tag (natural protein, CrgA (Rv0011c), cell division regulatory protein of M. tuberculosis H37Rv; also called Rv0011c) MPKSKVRKKNDFTVSAVSRTPMKVKVGPSSVWFVSLFIGLMLIGLIWLMVFQLAAIGSQAPTALNWMAQLGPWNYAIAFAFMITGLLLTMRWH | – | – | – | – | 470 | 0.0015 | 3180
